According to patent US20140248269A1 (NATIONAL CEREBRAL AND CARDIOVASCULAR CENTER, published 2014):

Target: T1, natriuretic peptide receptor GC-A (human, UniProt P16066 33-1061)
T1 sequence (looked up): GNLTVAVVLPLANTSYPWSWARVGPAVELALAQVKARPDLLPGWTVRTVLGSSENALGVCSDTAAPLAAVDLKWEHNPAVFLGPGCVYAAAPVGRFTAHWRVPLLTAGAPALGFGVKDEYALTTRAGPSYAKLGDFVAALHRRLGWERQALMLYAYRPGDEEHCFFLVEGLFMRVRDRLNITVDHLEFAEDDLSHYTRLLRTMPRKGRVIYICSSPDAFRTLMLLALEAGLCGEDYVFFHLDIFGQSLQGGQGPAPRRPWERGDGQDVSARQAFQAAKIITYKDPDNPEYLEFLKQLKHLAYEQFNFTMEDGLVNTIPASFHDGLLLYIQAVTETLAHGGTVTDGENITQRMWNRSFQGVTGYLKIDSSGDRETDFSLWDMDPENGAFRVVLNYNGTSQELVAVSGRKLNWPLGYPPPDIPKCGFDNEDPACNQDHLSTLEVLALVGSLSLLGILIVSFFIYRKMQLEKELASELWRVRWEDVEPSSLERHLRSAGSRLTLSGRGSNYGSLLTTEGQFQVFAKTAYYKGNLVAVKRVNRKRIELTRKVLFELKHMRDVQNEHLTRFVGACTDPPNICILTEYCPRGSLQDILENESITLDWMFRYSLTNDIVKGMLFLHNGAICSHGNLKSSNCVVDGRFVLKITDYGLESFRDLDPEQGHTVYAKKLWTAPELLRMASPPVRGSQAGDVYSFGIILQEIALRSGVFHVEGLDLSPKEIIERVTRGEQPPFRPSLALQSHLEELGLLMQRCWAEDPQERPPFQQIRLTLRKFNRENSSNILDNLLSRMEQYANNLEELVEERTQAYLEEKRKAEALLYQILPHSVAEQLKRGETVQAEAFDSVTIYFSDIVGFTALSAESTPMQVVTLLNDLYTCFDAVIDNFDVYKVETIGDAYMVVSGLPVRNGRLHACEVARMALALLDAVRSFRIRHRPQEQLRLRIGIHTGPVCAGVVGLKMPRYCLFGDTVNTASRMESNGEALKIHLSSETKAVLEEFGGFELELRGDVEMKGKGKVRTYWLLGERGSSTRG
Experiment: cell-based or functional assay

SLRRSSCFGLKLDRIGAQSGLGCNSFRY [LKL-ANP (mutant in which the amino acids at positions 10 to 12 of hANP are replaced with LKL)]
ratio of suppression of EMT induced by TGF-β1 in terms of E-cad/Ncad (A549 cells, 1 µM): 52.9%
